One may read the Kd as the equilibrium constant for the complex coming apart. By stoichiometry N is commonly meant the number of molecules, sites or subunits per partner or assembly.

Data set [1] has as its system H-NS C-terminal region 84-137. Put plainly: MST. Conditions: MST: 50 mM Tris-HCl, 50 mM NaCl, 2 mM MgCl2, 0.005% Tween-20, pH not stated; anisotropy: 20 mM HEPES pH 7.5, 50 mM NaCl, 2 mM MgCl2, 25 or 37 C, 20 nM DNA.
The test system of data set [2] is H-NS full length (H-NSFL). Put plainly: fluorescence anisotropy. Conditions: 25 C, 50 mM NaCl, 2 mM Mg2+, MST: 50 mM Tris-HCl, 2 mM MgCl2, 0.005% Tween-20, pH not stated, anisotropy: 20 mM HEPES pH 7.5, 50 mM NaCl, 2 mM MgCl2, 25 or 37 C, 20 nM DNA.
In data set [3] the test system is H-NS full length (H-NSFL). Put plainly: MST. Conditions: room temperature (25 C), 50 mM NaCl, 2 mM Mg2+, MST: 50 mM Tris-HCl, 2 mM MgCl2, 0.005% Tween-20, pH not stated, anisotropy: 20 mM HEPES pH 7.5, 50 mM NaCl, 2 mM MgCl2, 25 or 37 C, 20 nM DNA.
For data set [4], the target named is H-NS C-terminus (84–137) (Salmonella typhimurium) (UniProt P0A1S2). Put plainly: MST; 20 nM NT-647-labelled H-NS C-terminus, serial dilutions of the unlabelled partner; 50 mM Tris-HCl, 50 mM NaCl, 2 mM MgCl2, 0.005% Tween-20; 30 min incubation; single-binding-site fit; also repeated at 100, 250, 500 and 1000 mM NaCl.
The target of data set [5] is H-NSΔs2 with an N-terminal mCherry fusion (mChH-NSΔs2) (Salmonella typhimurium) (UniProt P0A1S2). The experiment in a line: dynamic light scattering; hydrodynamic radius against temperature, 5 to 60°C; protein at 125 to 500 μM; 150, 250 or 500 mM NaCl; pH 6, 7 or 8 (100 mM MES, MOPS or HEPES).
Data set [6] concerns the molecule itself. Put plainly: SAXS; H-NS 2-57,C21S in solution at 1-4 mg/ml, 10 to 42°C and a range of salt and buffer conditions (150 mM NaCl, 1 mM EDTA, 20 mM Tris pH 7.5 in Figure 2B); patterns compared with parallel and antiparallel site1 dimer models.

In turn, 13 bp AT-rich DNA yielded a Kd in data set [1] of 14.5 µM. “101 bp DNA with four consensus H-NS motifs”: the Kd was found to be 10.2 µM in data set [2] and 7.4 µM in data set [3]. In the case of “H-NS N-terminus (2–57), unlabelled, pET-M construct with N-terminal His6-tag (from UniProt P0A1S2 2-57) (domain or fragment)”, the Kd in data set [4] came to 4.1 µM. In turn, “H-NSΔs2 with an N-terminal mCherry fusion (mChH-NSΔs2) (from UniProt P0A1S2 1-137) (natural protein)” returned a stoichiometry N in data set [5] of 2.

B1: Salmonella typhimurium H-NS_(2–57,C21S) (domain or fragment)
chain: SEALKILNNIRTLRAQARESTLETLEEMLEKLEVVVNERREEESAAAAEVEERTRK
notes: H-NS, Salmonella typhimurium, residues 2-57 (site1) with C21S
With B1, in data set [6], the “stoichiometry N” value turned out to be 2.

The record behind these values is publication PMC6411929, “H-NS uses an autoinhibitory conformational switch for environment-controlled gene silencing” (Nucleic Acids Research, 2018).
